According to US12668821B2, “Enzymatic production of glucaric acid from glucuronic acid” (THE GOVERNING COUNCIL OF THE UNIVERSITY OF TORONTO, priority 2019, dated 2026):

Key:
[1] = H2O2 inhibition assay of AxyAgu115A on glucuronoxylan; assay type: biochemical, beechwood
Method: FIG. 10: HPAEC-PAD analyses of H2O2 effects on AxyAgu115A activity and MeGlcA degradation.
AxyAgu115A (10 μg/mL) was incubated with 1% glucuronoxylan in 50 mM Tris buffer pH 8.0 in the presence of various H2O2 concentrations (0.01-100 mM). MeGlcA (1 mM) was also incubated with the same H2O2 concentrations. The reactions were kept in the dark at 40° C. for 16 h in a thermomixer (Eppendorf, USA). Catalase (200 μg/mL) was then added, and the reactions were kept incubating for another 30 min to remove H2O2 before HPAEC-PAD analysis.
The MeGlcA concentration released by AxyAgu115A from 6% glucuronoxylan after 16 h was around the Km of GOOX-Y300A on this acidic sugar, supporting the usage of GOOX-Y300A and AxyAgu115 in a one-pot reaction. […] Thus, a one-pot sequential reaction was performed where GOOX-Y300A was added to the reaction after pre-hydrolysis of glucuronoxylan by AxyAgu115A for 4 h. Following 16 h of incubation with GOOX-Y300A, methyl glucaric acid yields were similar to those achieved using the two-pot sequential system described above (i.e., 60% yield as confirmed by LC-MS).

[2] = Release of MeGlcA from glucuronoxylan by AxyAgu115A (HPAEC-PAD); assay type: biochemical, beechwood; settings: from 1.5 g glucuronoxylan, calculated on the MeGlcA standard curve
Method: Glucuronoxylan (6%) was incubated with AxyAgu115A (10 μg/mL) and GOOX-Y300A (10 μg/mL) in 100 mM Tris buffer pH 8.0 at 40° C. in a rotator oven for up to 72 h. The reactions were then vacuum-filtered using 96-well filter plates (0.22-μm PVDF membrane) (Millipore, USA) in a Tecan liquid handler (500 mbar) (Tecan Trading AG, Switzerland). Enzymatic products in the flow-through were confirmed by mass spectrometry and quantified by HPAEC-PAD analysis.
Reaction samples were vacuum-filtered using 0.22-μm, PVDF filter plates (Millipore, USA) with a Tecan liquid handler (500 mbar) (Tecan Trading AG, Switzerland). […] The presence of acidic sugars was detected using an ICS5000 HPAEC-PAD system (Dionex, USA) with a CarboPac PA1 (2×250 mm) analytical column (Dionex, USA). […] Chromatograms were analyzed using Chromeleon 7.2 (Dionex, USA).
AxyAgu115A was produced with high purity (FIG. 2). The treatment of glucuronoxylan with AxyAgu115A released only MeGlcA, as analyzed by HPAEC-PAD (FIG. 3), and no additional release of MeGlcA was seen after 16 h. […]
The concentration of MeGlcA released from 1.5 g glucuronoxylan was 21.6±1.2 mM, calculated by on the MeGlcA standard curve (FIG. 5) whereas the estimated molar concentration of MeGlcA, based on a previous analysis of glucuronoxylan composition (Teleman et al., 2002), was 24.4 mM. […]

B1: AxyAgu115A: GH115 α-glucuronidase from Amphibacillus xylanus, SEQ ID NO: 4 (protein, listed as Amphibacillus xylanus)
chain: MDFTLNQEMLMTDTKSGALFYQEEEALSGVRKIANKVMHDVELVFGYQPEATKDRDMLSRHAVLYGTVGHSPLLDELNKKELIDLTEIAGKREVFLFQVVDQPIQGVEKALVIAGSDKRGTIYGLFHLSEKLGVSPLVDWSGVLPARKESFSLKGDYKYVSKEPSVKYRGFFINDEWPAFGNWSAKNFGGFNAEMYDHVFELLLRLKGNYLWPAMWSARFNDDGPGLANVELADEYGVIMGASHHEPCLRYGEEYKYLRGPDSIYGDAWNFITNREGITKFWEDGLKRTGHFENIITIGMRGEADTKIMGEDATLEDNINLLRDVIQTQNKLIKEHVNPNLKEVPRMLALYKEVEPFFYGDENTPGLINSEELEDVILMLCDDNHGNLRTLPTEDMRKHSGGYGMYYHFDYHGGPVSYEWINSSYLPKIWEQMTMAYDFGVRDLWIVNVGDIATQELPLSFFLDLAYDFDKWGTNAINKTDDYTKQWIEQQFAGVFNLEQKDKVFELLNGYTKIAHNRRPEAMNVDVYHPVNYHETDQLLDRIDHLLGLAEELYQEVDQQHFTAYFALVYYPTVGNLNLQKMWLLNGKNKYAAQLNLIEANKLAEQVKACLKRDQEIVDEYHTIADGKFYGMGLSEHIGFVHWNEDENKNPVLSYVLPVNKPRLLVSIDGTELRSEGSPWHVNTLPLVDFLEPDVNQASFTISSVSEKKAEYHISTDQDWLSCSAANGVLDGKNKLSETIHVFVDRDGLADQAEGRITVKTPVGKVTIVVPVVNNDFTNYPDMTFVDTKGYISIEAEHFATQKATENLDGTLNRFEVLDGYGKTLSAIKAFPTDTHYQVGKDAPFVEYHFVTQEAGVYELEFYLQPSNPVTREGTMYAGIQVNENDVDVINVLPDGYHVDGPHWGIDVINNIRTTKTKITCEQGLNKLRIYAVSPGFALEKIVIYPDGKKLANSYLGPNETYYVGR
activity lost in the presence of H2O2 ([1]; 10 mM H2O2): approximately half of AxyAgu115A activity was lost
H2O2 concentration at which activity was inhibited ([1]; 1% glucuronoxylan, 50 mM Tris pH 8.0, 40° C., 16 h): greater than 1 mM
effect of higher H2O2 concentrations on MeGlcA released from glucuronoxylan ([1]; peak area, HPAEC-PAD, FIG. 10A): lowered the amount of MeGlcA released
concentration of MeGlcA released from glucuronoxylan [2]: 21.6 ± 1.2 mM
